This note sets out measurements from paper PMC5389796.

Assay [1] deals with TALK-1 T3-FLAG (human) (UniProt Q96T55).
Assay [2] shares this target. The source holds these as a separate data set.
Assay [3] deals with TALK-1 T3 A277E (rs1535500)-FLAG (human) (UniProt Q96T55).

Turning to “iOPN-V5 (from UniProt P10451-1 17-314) (natural protein)”, in assay [1], the change of resting membrane potential (ΔVm), TALK-1 T3 with iOPN against TALK-1 T3 with PKM2, perforated patch is -7.7 mV and the resting membrane potential (Vm) of T-REx cells expressing TALK-1 T3 with iOPN, perforated patch was -80.2 mV. The substance also had a whole-cell K2P currents of T-REx cells with induced TALK-1 T3, increase with iOPN compared to the PKM2 control, at -60, -30, 0, 30 and 60 mV in assay [2] of 19.6 pA/pF. In assay [3], this substance yielded a whole-cell K2P currents of T-REx cells with induced TALK-1 T3 A277E, increase with iOPN compared to the PKM2 control, at -60, -30, 0, 30 and 60 mV of 18.7 pA/pF.
